The text below walks through data of JP2003261460A.

This experiment concerns the target Flt-1 (VEGFR-1, fms-like tyrosine kinase-1) of wild-type mice (WF) (mouse) (UniProt P35969). As to the kind of experiment: cell-based or functional assay.
Sequence of UniProt P35969 (P35969 23-1333 S1181G): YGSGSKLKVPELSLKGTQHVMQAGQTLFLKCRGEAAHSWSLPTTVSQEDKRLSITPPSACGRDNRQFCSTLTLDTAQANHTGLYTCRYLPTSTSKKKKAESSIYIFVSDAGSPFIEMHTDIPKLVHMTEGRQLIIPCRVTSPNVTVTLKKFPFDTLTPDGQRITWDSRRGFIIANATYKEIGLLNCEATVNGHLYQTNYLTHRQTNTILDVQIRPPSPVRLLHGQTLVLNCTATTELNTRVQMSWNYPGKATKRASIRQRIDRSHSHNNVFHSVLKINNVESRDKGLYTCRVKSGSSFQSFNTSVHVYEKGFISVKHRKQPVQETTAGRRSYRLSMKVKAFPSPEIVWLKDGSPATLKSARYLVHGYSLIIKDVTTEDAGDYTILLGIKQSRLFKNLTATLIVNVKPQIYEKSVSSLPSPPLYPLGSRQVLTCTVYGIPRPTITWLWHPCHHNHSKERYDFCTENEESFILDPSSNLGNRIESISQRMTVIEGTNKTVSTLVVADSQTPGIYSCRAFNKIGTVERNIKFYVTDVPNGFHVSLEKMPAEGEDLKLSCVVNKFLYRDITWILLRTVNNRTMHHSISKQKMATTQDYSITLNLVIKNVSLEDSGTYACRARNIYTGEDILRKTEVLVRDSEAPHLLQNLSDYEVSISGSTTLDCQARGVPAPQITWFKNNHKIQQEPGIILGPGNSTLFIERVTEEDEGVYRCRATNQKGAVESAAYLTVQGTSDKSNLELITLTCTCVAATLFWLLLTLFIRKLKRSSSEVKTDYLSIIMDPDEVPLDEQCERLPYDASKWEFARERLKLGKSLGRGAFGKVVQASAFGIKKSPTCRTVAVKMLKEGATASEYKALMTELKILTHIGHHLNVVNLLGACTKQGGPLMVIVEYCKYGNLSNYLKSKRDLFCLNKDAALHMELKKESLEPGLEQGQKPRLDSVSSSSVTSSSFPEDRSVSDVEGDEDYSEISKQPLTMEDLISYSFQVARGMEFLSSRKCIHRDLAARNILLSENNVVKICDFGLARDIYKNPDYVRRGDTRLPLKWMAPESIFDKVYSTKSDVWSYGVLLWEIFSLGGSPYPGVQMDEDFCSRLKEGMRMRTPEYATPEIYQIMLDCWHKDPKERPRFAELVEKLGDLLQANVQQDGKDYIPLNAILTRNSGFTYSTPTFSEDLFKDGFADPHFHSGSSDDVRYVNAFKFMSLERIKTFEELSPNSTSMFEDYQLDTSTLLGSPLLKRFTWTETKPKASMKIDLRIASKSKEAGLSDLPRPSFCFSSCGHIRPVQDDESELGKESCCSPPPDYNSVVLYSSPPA

Consider VEGF (R&D社製) (ligand), for which the MMP-9誘導 (肺組織培養, ゼラチン基質ザイモグラフィー) was determined as 40 ng/mL.
